For the assay, the target named is T1, recombinant human MCP-1 (CCL2) (human, UniProt P13500 24-99).
T1 construct: Bought recombinant protein; also called RHMCP-1; monocyte chemoattractant protein-1
In words: direct ELISA (O.D. 450 nm), chemokine coated at 100 ng/ml, CCR2(E3)-IgG at 5 ug/ml; reference: other human chemokines tested. Here is the method:
ELISA—The binding specificity of CCR2(E3)-IgG to various commercially available human chemokines (PeproTech, Rocky Hill, N.J.) was determined by direct ELISA as follows: 96-well ELISA plates (Nunc, Roskilde, Denemark) were coated with 100 ng/ml of each chemokine, washed and blocked with 1% BSA/PBS. CCR2(E3)-IgG at a concentration 5 μg/ml was then added. HRP labeled mouse anti human Ig (Jackson, Pa.) was added as a second Antibody. Results are shown as O.D. reading at 450 nm. Anti CCL2 monoclonal antibody (MAB679; R&D Systems, Minneapolis, […].) was used as a positive control (1 μg/ml).
Background: An ELISA detects its analyte on a solid surface through an enzyme-linked reagent.

T1 sequence (P13500 24-99 limits assumed): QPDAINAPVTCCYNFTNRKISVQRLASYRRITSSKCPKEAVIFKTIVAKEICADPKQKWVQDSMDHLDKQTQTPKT

B1: CCR2(E3)-IgG fusion protein (Fc fusion)
chain: GLSNCESTSQLDQATQVTET
notes: also called Ig-E3; CCR2-IgG; not shown: constant region (Hinge-CH2-CH3) of human IgG1 heavy chain, ligated downstream of CCR2 (E3)
Regarding B1, the “fold binding against other factors tested” value was about 4 fold.

The record behind these values is US20110033521A1 (RAPPAPORT FAMILY INSTITUTE FOR RESEARCH IN THE MEDICAL …, published 2011).
